From patent publication US20250376533A1
Where two headings read alike, the source gives them in different places.

How the values were obtained:
[1] = biological target: human CD40 antigen (ACROBiosystems) (human) (UniProt P25942); test: ELISA, coated antigen
[2] = biological target: cynomolgus CD40 antigen (ACROBiosystems) (cynomolgus) (UniProt G7PG38); test: ELISA, coated antigen
[3] = biological target: CD40 on HEK-Blue CD40L cells (InvivoGen) (UniProt P25942); test: cell-based or functional assay
[4] = biological target: human CD40 antigen (ACROBiosystems) (human) (UniProt P25942); test: ELISA, coated antigen; remark: listed apart in the source
[5] = biological target: cynomolgus CD40 antigen (ACROBiosystems) (cynomolgus) (UniProt G7PG38); test: ELISA, coated antigen; remark: listed apart in the source
[6] = biological target: cynomolgus PD-L1 antigen (ACROBiosystems) (cynomolgus) (UniProt G7PSE7); test: ELISA, coated antigen
[7] = biological target: human PD-L1 antigen (ACROBiosystems) (human) (UniProt Q9NZQ7); test: ELISA, coated antigen
[8] = biological target: human PD-L1 antigen (ACROBiosystems) (human) (UniProt Q9NZQ7); test: ELISA, coated antigen; remark: listed apart in the source
[9] = biological target: human PD-L1 antigen (ACROBiosystems) (human) (UniProt Q9NZQ7); test: BLI (Gator), antibody captured on PA probe, human PD-L1 in solution

Chain of control CD40 monoclonal antibody CP-870893 (IMGT database ID 10523) (VH): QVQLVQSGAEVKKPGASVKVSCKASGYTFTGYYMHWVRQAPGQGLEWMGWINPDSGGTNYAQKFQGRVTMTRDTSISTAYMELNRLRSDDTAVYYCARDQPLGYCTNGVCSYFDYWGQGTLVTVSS
Chain of control CD40 monoclonal antibody CP-870893 (IMGT database ID 10523) (VL): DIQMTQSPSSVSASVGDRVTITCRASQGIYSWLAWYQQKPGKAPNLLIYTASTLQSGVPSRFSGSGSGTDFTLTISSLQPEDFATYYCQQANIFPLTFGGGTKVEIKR
Chain of human PD-L1 antigen (ACROBiosystems) (human) (Q9NZQ7 19-238 limits assumed): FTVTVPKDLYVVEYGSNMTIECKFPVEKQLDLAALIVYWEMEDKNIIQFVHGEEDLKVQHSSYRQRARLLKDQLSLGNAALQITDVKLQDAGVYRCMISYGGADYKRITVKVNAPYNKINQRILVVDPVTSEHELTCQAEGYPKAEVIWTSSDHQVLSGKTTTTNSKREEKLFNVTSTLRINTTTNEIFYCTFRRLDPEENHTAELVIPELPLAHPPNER
Chain of CD40 on HEK-Blue CD40L cells (InvivoGen) (P25942 21-277 limits assumed): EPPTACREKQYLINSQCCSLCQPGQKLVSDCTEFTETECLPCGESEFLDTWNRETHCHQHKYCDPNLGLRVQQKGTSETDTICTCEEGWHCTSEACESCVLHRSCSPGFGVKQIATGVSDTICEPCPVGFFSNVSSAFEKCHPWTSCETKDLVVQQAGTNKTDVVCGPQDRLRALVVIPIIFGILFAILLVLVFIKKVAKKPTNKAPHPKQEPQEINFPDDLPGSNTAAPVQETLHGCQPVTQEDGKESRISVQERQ
Chain of cynomolgus CD40 antigen (ACROBiosystems) (cynomolgus) (G7PG38 entry or part of it): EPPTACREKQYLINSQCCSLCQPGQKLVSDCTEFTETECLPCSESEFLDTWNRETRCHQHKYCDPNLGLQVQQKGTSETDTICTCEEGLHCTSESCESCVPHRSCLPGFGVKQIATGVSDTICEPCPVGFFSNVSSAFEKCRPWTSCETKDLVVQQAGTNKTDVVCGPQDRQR
Chain of human CD40 antigen (ACROBiosystems) (human) (P25942 21-193 limits assumed): as the sequence (G7PG38 entry or part of it) above, with S43G, R56H, Q70R, L89W, S95A, P101L, L106S, R142H, Q172L counted along it
Chain of cynomolgus PD-L1 antigen (ACROBiosystems) (cynomolgus) (G7PSE7 entry or part of it): as the sequence (Q9NZQ7 19-238 limits assumed) above, with A33T, A34S, S62N, R68Q, Q82R, F173L, T185A, T192I, H215L counted along it

| EC50 [1] [nM] | EC50 [2] [nM] | CD40 agonistic activity (A)/(B) Ratio, EC50 without over with CHO/PD-L1 [3] | CD40 agonistic activity EC50 (nM) with CHO/PD-L1 (B), SEAP reporter [3] [nM] | CD40 agonistic activity EC50 (nM) without CHO/PD-L1 (A), SEAP reporter [3] [nM] | EC50 [4] [nM] | EC50 [5] [nM] | EC50 [6] [nM] | EC50 [7] [nM] | EC50 [8] [nM] | koff [9] [s⁻¹] | Substance |
| --- | --- | --- | --- | --- | --- | --- | --- | --- | --- | --- | --- |
| 0.018 | 0.018 | 0.9 | 0.123 | 0.109 | 0.016 | 0.016 | – | – | – | – | control CD40 monoclonal antibody CP-870893 (IMGT database ID 10523) |
| – | – | – | – | – | – | – | 0.017 | 0.014 | 0.012 | 0.00265 | control PD-L1 monoclonal antibody Durvalumab (IMGT database ID 10010) |
